Read-outs that look alike come from different tables or passages of the source.
B1: O6-meG-C duplex (dsDNA)
DNA 1: ATACGGAAGTTAAAGTGCGGATCATCTCTAG
DNA 2: CTAGAGATGATCCGCACTTTAACTTCCGTAT
modifications: O6-methylguanine at G17 of strand 1
B2: Xlink unplatinated homoduplex GG-CC (dsDNA)
DNA 1: CCTCTCCTTGGTCTTCTCCTCTCC
DNA 2: GGAGAGGAGAAGACCAAGGAGAGG
B3: Xlink platinated GG-CC (dsDNA)
DNA 1: CCTCTCCTTGGTCTTCTCCTCTCC
DNA 2: GGAGAGGAGAAGACCAAGGAGAGG
modifications: cisplatin intrastrand 1,2-GG cross-link at G10-G11 of strand 1

Tests used:
Assay in all cases: EMSA
MutS [1] = molecular target: T1, MutS (Escherichia coli, UniProt P23909 1-853)
T1 sequence: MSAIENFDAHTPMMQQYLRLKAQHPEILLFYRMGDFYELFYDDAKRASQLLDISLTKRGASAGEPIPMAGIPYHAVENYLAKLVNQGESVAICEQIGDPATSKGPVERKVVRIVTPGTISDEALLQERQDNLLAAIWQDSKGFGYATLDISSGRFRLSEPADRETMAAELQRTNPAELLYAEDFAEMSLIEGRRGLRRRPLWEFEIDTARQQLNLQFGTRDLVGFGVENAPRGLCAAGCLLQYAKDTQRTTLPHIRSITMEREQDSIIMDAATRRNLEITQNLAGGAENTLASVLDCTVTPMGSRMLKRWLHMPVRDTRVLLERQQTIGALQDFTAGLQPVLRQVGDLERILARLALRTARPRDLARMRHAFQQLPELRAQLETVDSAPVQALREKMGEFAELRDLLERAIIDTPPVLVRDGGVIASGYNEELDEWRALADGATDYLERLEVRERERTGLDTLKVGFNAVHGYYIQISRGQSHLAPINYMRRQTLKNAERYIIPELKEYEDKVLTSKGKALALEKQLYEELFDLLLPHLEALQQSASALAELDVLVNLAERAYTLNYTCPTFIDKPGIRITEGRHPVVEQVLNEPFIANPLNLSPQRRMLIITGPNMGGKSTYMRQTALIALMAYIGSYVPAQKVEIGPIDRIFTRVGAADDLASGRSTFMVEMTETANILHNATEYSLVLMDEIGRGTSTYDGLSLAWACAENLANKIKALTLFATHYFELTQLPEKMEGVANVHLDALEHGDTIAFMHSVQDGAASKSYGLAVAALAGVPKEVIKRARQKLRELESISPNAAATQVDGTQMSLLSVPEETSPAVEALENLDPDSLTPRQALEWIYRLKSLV

MutSΔ800 [2] = molecular target: T2, MutSΔ800 (Escherichia coli, UniProt P23909 1-800, del801-853)
T2 sequence: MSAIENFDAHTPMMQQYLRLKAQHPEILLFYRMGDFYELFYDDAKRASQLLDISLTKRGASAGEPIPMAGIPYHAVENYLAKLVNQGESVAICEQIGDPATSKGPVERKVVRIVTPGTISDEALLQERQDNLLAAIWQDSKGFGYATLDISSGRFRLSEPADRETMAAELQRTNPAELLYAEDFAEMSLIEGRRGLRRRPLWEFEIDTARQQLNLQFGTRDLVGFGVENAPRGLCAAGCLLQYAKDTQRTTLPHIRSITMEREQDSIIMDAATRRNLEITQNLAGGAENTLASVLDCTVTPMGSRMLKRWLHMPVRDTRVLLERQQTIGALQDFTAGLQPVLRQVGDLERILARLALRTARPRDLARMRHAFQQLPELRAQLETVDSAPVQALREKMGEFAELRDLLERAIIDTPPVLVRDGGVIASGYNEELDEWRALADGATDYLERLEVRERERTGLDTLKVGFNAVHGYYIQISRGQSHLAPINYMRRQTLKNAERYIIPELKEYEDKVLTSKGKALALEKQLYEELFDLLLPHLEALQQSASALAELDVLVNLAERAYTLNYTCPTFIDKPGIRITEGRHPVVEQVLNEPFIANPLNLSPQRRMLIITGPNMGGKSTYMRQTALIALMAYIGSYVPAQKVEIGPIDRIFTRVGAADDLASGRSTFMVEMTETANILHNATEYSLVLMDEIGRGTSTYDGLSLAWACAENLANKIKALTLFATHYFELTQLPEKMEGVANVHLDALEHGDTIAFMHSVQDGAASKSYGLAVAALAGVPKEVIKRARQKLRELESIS

MutS [3] = molecular target: T1, MutS; remark: listed apart in the source
MutSΔ800 [4] = molecular target: T2, MutSΔ800; remark: listed apart in the source

Row | Binder | binding result (MutS [1]) | binding result (MutSΔ800 [2]) | binding result (MutS [3]) | binding result (MutSΔ800 [4])
1 | B1 | binds | binds | – | –
2 | B2 | – | – | no binding | no binding
3 | B3 | – | – | binds | no binding

Source: paper PMC549567
